Test results from patent US9127040B2, “Regulation of sodium channels by PLUNC proteins” (The University of North Carolina at Chapel Hill, priority 2011, dated 2015).

Target: T1, αβγENaC (Rattus norvegicus, UniProt P37089+P37090+P37091, S518C)
T1 construct: expressed in transfected cells; host or cells: Xenopus laevis oocytes (cRNA injection)
T1 sequence (P37089 1-698): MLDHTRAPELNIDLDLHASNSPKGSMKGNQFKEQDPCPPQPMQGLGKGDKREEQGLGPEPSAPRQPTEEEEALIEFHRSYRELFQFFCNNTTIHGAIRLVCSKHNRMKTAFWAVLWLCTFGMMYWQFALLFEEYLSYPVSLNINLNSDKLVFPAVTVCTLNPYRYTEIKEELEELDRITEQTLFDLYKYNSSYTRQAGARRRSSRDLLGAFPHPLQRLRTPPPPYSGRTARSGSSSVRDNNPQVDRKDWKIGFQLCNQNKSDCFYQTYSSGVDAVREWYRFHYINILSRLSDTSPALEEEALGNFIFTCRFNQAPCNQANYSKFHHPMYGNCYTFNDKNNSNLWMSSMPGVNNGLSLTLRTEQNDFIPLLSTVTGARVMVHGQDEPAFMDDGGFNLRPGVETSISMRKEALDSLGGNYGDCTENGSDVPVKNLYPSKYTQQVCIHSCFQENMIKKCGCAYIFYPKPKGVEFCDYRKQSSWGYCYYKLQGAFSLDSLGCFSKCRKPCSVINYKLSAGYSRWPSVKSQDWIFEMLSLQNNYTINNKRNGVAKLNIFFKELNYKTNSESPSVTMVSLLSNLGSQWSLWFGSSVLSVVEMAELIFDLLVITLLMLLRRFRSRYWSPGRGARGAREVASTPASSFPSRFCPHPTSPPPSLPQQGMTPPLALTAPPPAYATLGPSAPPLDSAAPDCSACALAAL
T1 sequence (P37090 1-638 S518C): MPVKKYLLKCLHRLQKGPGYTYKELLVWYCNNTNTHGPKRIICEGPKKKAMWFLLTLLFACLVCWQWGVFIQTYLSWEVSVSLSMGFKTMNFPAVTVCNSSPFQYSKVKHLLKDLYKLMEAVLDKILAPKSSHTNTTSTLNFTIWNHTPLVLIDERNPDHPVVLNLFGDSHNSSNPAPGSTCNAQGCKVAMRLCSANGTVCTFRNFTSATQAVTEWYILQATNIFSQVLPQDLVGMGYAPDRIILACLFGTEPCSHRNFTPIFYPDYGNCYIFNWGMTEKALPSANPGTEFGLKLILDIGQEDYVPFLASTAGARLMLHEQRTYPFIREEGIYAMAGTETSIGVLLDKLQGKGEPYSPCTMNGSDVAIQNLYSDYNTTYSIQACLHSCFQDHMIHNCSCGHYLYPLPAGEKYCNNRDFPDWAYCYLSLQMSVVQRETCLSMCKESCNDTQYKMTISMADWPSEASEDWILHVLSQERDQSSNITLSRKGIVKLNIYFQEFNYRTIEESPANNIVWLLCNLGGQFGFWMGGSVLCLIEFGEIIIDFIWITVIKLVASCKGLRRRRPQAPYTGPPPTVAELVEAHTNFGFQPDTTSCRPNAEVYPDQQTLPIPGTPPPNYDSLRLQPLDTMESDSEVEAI
T1 sequence (P37091 1-650): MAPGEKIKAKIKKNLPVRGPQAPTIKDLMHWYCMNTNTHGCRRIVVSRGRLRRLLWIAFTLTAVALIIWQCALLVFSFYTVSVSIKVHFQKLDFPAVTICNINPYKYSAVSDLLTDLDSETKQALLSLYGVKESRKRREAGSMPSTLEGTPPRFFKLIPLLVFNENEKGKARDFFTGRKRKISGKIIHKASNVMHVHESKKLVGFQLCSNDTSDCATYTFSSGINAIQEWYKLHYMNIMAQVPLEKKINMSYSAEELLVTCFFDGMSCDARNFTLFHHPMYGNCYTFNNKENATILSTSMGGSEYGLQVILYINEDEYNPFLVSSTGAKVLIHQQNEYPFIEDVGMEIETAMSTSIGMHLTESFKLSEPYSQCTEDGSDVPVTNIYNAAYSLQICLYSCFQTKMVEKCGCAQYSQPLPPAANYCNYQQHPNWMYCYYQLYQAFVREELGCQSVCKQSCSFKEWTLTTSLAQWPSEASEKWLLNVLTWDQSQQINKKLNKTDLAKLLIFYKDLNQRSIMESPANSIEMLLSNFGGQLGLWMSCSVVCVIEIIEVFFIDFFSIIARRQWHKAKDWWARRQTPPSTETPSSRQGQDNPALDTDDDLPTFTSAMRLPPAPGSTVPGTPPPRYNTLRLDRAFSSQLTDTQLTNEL
Experiment: Amiloride-sensitive whole cell current, two electrode voltage clamp, Xenopus laevis oocytes expressing αβγENaC
Format: cell-based
Settings: Po increased to 1.0 by MTSET; SPLUNC1 coexpressed

B1: SPLUNC1: human SPLUNC1 (SEQ ID NO:1), 256 amino acid secreted PLUNC family protein; rSPLUNC1 is the purified V5/6His-tagged recombinant form (protein, listed as Homo sapiens)
chain: MFQTGGLIVFYGLLAQTMAQFGGLPVPLDQTLPLNVNPALPLSPTGLAGSLTNALSNGLLSGGLLGILENLPLLDILKPGGGTSGGLLGGLLGKVTSVIPGLNNIIDIKVTDPQLLELGLVQSPDGHRLYVTIPLGIKLQVNTPLVGASLLRLAVKLDITAEILAVRDKQERIHLVLGDCTHSPGSLQISLLDGLGPLPIQGLLDSLTGILNKVLPELVQGNVCPLVNEVLRGLDITLVHDIVNMLIHGLQFVIKV
modifications: V5/6His tag in recombinant form
notes: rSPLUNC1 is the purified V5/6His-tagged recombinant form
overall current of ENaC containing βS518C mutant after MTSET: still reduced
